From patent publication US20240150447A1 (CEPHALON, published 2024)
Positions count from the first letter of the chain named. Numbers in names are those of the source.

B1: hIgG1 M252Y/S254T/T256E/N434W, O4 VH with Ab6 light chain (antibody)
heavy: QVQLRQSGPGLVQPSQSLSITCTVSGFSLTSYGVHWFRQSPGKGLEWLGVIWSGGSTDYNAAFISRLSISKDNSKSQVFFKMNSLQANDTAIYYCARNRGRYNYYAMDYWGQGTSVTVSSASTKGPSVFPLAPSSKSTSGGTAALGCLVKDYFPEPVTVSWNSGALTSGVHTFPAVLQSSGLYSLSSVVTVPSSSLGTQTYICNVNHKPSNTKVDKKVEPKSCDKTHTCPPCPAPELLGGPSVFLFPPKPKDTLYITREPEVTCVVVDVSHEDPEVKFNWYVDGVEVHNAKTKPREEQYNSTYRVVSVLTVLHQDWLNGKEYKCKVSNKALPAPIEKTISKAKGQPREPQVYTLPPSRDELTKNQVSLTCLVKGFYPSDIAVEWESNGQPENNYKTTPPVLDSDGSFFLYSKLTVDKSRWQQGNVFSCSVMHEALHWHYTQKSLSLSPG
light: not shown
notes: hIgG1
B2: hIgG1 M252Y/T256S/V308P/N434W, O4 VH with Ab6 light chain (antibody)
heavy: B1 heavy with T257S, E259S, V311P
light: not shown
notes: hIgG1
B3: hIgG1 M252Y/T256L/V308P/N434W, O4 VH with Ab6 light chain (antibody)
heavy: B1 heavy with T257S, E259L, V311P
light: not shown
notes: hIgG1
B4: hIgG1 M252Y/T256H/V308P/N434W, O4 VH with Ab6 light chain (antibody)
heavy: B1 heavy with T257S, E259H, V311P
light: not shown
notes: hIgG1
B5: hIgG1 M252Y/T256E/V308P/N434W, O4 VH with Ab6 light chain (antibody)
heavy: B1 heavy with T257S, V311P
light: not shown
notes: hIgG1
B6: hIgG1 M252Y/T256D/V308P/N434W, O4 VH with Ab6 light chain (antibody)
heavy: B1 heavy with T257S, E259D, V311P
light: not shown
notes: hIgG1
B7: hIgG1 M252Y/T256V/V308P/N434W, O4 VH with Ab6 light chain (antibody)
heavy: B1 heavy with T257S, E259V, V311P
light: not shown
notes: hIgG1
B8: hIgG1 M252Y/V308P/N434Y, O4 VH with Ab6 light chain (antibody)
heavy: B1 heavy with T257S, E259T, V311P, W437Y
light: not shown
notes: hIgG1
B9: hIgG1 M252Y/T256R/V308P/N434W, O4 VH with Ab6 light chain (antibody)
heavy: B1 heavy with T257S, E259R, V311P
light: not shown
notes: hIgG1
B10: hIgG1 M252Y/T256A/V308P/N434W, O4 VH with Ab6 light chain (antibody)
heavy: B1 heavy with T257S, E259A, V311P
light: not shown
notes: hIgG1
B11: hIgG1 M252Y/V308P/N434W, O4 VH with Ab6 light chain (antibody)
heavy: B1 heavy with T257S, E259T, V311P
light: not shown
notes: hIgG1
B12: hIgG1 M252Y/T256P/V308P/N434W, O4 VH with Ab6 light chain (antibody)
heavy: B1 heavy with T257S, E259P, V311P
light: not shown
notes: hIgG1
B13: hIgG1 M252Y/T256M/V308P/N434W, O4 VH with Ab6 light chain (antibody)
heavy: B1 heavy with T257S, E259M, V311P
light: not shown
notes: hIgG1
B14: hIgG1 M252Y/T256Y/V308P/N434W, O4 VH with Ab6 light chain (antibody)
heavy: B1 heavy with T257S, E259Y, V311P
light: not shown
notes: hIgG1
B15: hIgG1 M252Y/T256V/V308P/N434F, O4 VH with Ab6 light chain (antibody)
heavy: B1 heavy with T257S, E259V, V311P, W437F
light: not shown
notes: hIgG1
B16: hIgG1 P257A/V308P/M428L/N434Y, O4 VH with Ab6 light chain (antibody)
heavy: B1 heavy with Y255M, T257S, E259T, P260A, V311P, M431L, W437Y
light: not shown
notes: hIgG1

biological target: T1, human FcRn protein (human, UniProt P55899 24-297, limits assumed); test: SPR, Ab on Protein L chip, hFcRn in flow, pH 6.0
T1 construct: source and construct not described; also called hFcRn; FCGRT
T1 sequence (P55899 24-297 limits assumed, chain 1 of 2): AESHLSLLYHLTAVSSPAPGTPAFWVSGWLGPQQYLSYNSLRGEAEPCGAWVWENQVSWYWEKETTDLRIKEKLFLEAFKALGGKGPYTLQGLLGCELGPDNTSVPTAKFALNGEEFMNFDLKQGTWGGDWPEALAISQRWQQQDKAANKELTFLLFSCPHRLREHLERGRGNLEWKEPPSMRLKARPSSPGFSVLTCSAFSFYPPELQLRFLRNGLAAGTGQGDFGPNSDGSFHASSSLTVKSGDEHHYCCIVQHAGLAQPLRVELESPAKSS
T1 sequence (chain, as listed by the source limits assumed, chain 2 of 2): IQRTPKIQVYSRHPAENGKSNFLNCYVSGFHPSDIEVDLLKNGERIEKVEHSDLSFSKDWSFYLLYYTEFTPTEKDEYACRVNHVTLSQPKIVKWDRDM
Description: (§1) The interaction between human immunoglobulin proteins and FcRn is known to be affected by the pH of their environment solution. To test whether this pH-dependent interaction correlates with the quantity of antibody variants in the brain parenchyma after in vivo administration, the affinity of certain variants towards FcRn were screened at pH 6.0 and pH 7.4 on a Biacore T200 system (GE Healthcare). All experiments were conducted at 25′ C. Antibodies were expressed and purified using the Expi293 expression system as described in Example 1. Cells were transfected with a heavy chain comprising the variable region of the 04 antibody used in Example 2 [SEQ ID NO: 1] fused to a heavy chain region bearing the indicated substitution in Table 11 and a light chain from Ab6 [SEQ TD NO: 24]. Although the CH sequences listed in Table 11 include the terminal lysine (K447), this terminal lysine was truncated during the cloning process for each of these variants for the purposes of this experiment. Antibody proteins were captured at a flow rate of 10 μL/min on a Protein L chip to a surface density of approximately 100 RU. Experiments conducted at pH 7.4 were conducted in PBST (1.06 mMKH2PO4, 155.17 mM7NaCl, 2.97 mM 4Na2PO4-7H2O, and 0.005 Tween-20). […] The antibody-FcRn complex was allowed to dissociate for 20 s before the chip was regenerated with 10 mM glycine pH 1.7. On-rates (ka) and off-rates (kd) were estimated by the best fit to a one-to-one Langmuir binding model by simultaneous fitting of the association and dissociation sensograms. The dissociation constant (KD) for FcRn binding was then calculated as the ratio of the off rate to the on rate (kd/ka).

Binder | Kd [nM] | koff [s⁻¹] | kon [M⁻¹ s⁻¹]
B1 | 4.38 | 0.00655 | 1.49e+06
B2 | 1.23 | 0.00186 | 1.52e+06
B3 | 2.85 | 0.00351 | 1.23e+06
B4 | 2.2 | 0.00228 | 1.04e+06
B5 | 0.744 | 0.00128 | 1.71e+06
B6 | 1.19 | 0.00211 | 1.77e+06
B7 | 1.87 | 0.0024 | 1.29e+06
B8 | 1.51 | 0.00242 | 1.61e+06
B9 | 0.433 | 0.001 | 2.31e+06
B10 | 0.426 | 0.000815 | 1.91e+06
B11 | 0.767 | 0.00124 | 1.62e+06
B12 | 0.0414 | 3.83e-05 | 927000
B13 | 0.828 | 0.00125 | 1.51e+06
B14 | 0.754 | 0.00112 | 1.49e+06
B15 | 1.25 | 0.00139 | 1.11e+06
B16 | 4.26 | 0.00706 | 1.66e+06

biological target: T1, human FcRn protein; test: SPR, Ab on Protein L chip, hFcRn in flow, pH 7.4
Description: as §1

Binder | Kd [nM] | koff [s⁻¹] | kon [M⁻¹ s⁻¹]
B2 | 84.5 | 0.0564 | 668000
B3 | 137 | 0.0868 | 634000
B4 | 103 | 0.19 | 1.82e+06
B5 | 70.2 | 0.0341 | 486000
B6 | 52.1 | 0.0338 | 650000
B7 | 68.7 | 0.0327 | 476000
B8 | 10300 | 0.748 | 72600
B10 | 90.1 | 0.08 | 893000
B11 | 730000 | 3.11 | 4260
B12 | 49.8 | 0.02 | 442000
B13 | 37.2 | 0.28 | 7.62e+06
B14 | 202 | 0.08 | 395000
B15 | 202 | 0.2 | 977000
B16 | 239 | 0.0545 | 228000
